For orientation: stoichiometry N means a count of units in the complex or per binding partner.

The test addresses VZV gB[H527P] on extracellular vesicles (EVs) from BHK-21 cells (varicella-zoster virus (VZV)) (UniProt Q4JR05). The test is described as follows: cryo-EM structure.

For “VZV gB[H527P] on extracellular vesicles (EVs) from BHK-21 cells (from UniProt Q4JR05 72-931) (natural protein)”, the stoichiometry N came to 3.
